In publication PMC3433253 (Journal of molecular biology, 2012):
Each block holds one binder with its values, some of them ahead of it.

B5: CC2D1A(346-455) (domain or fragment, human, UniProt Q6P1N0 346-455, looked up)
chain: RTLLEALEQRMERYQVAAAQAKSKGDQRKARMHERIVKQYQDAIRAHKAGRAVDVAELPVPPGFPPIQGLEATKPTQQSLVGVLETAMKLANQDEGPEDEEDEVPKKQNS
B7: MBP-CHMP4B(7-110) (domain or fragment, UniProt Q9H444 7-110, looked up)
chain: LFGAGGGKAGKGGPTPQEAIQRLRDTEEMLSKKQEFLEKKIEQELTAAKKHGTKNKRAALQALKRKKRYEKQLAQIDGTLSTIEFQREALENANTNTEVLKNMG

Experiments:
CC2D1A(346-455) = molecular target: B5; experiment: SPR
MBP-CHMP4B(7-110) = molecular target: B7; experiment: ITC
MBP-CHMP4B(23-97) = molecular target: T1, MBP-CHMP4B(23-97) (UniProt Q9H444 23-97); experiment: ITC
T1 sequence (looked up): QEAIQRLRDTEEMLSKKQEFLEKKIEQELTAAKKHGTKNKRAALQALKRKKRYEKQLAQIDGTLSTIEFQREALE

[1] = molecular target: T2, CHMP4B(23-97), MBP removed (UniProt Q9H444); experiment: SEC-MALS
T2 sequence (Q9H444 23-97, species assumed, looked up): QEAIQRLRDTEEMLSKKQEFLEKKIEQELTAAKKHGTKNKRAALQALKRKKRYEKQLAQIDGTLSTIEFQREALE

CC2D1B(1-601) [2] = molecular target: T3, CC2D1B(1-601) (UniProt Q5T0F9 1-601); experiment: SEC-MALS
T3 sequence (looked up): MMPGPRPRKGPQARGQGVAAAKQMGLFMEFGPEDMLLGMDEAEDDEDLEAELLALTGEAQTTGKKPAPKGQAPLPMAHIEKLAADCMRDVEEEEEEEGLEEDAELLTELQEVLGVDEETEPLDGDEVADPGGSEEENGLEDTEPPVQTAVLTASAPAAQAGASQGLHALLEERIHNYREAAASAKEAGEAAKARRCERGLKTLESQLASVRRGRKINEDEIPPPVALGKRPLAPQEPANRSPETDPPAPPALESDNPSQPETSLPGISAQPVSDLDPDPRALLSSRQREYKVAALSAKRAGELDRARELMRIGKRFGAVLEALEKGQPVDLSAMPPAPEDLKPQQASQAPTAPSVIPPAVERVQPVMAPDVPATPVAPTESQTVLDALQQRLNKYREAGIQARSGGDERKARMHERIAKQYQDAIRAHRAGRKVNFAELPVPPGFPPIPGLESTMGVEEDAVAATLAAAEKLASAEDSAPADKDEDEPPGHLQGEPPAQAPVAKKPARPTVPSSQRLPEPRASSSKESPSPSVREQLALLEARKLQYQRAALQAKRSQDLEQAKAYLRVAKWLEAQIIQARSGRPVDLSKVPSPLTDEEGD

CC2D1B(1-601) [3] = molecular target: T3, CC2D1B(1-601); experiment: ITC

B3: CC2D1A(309-494) (domain or fragment, human, UniProt Q6P1N0 309-494, looked up)
chain: SCLPPPPDQLPPDPPSPPSQPPTPATAPSTTEVPPPPRTLLEALEQRMERYQVAAAQAKSKGDQRKARMHERIVKQYQDAIRAHKAGRAVDVAELPVPPGFPPIQGLEATKPTQQSLVGVLETAMKLANQDEGPEDEEDEVPKKQNSPVAPTAQPKAPPSRTPQSGSAPTAKAPPKATSTRAQQQL
dH (MBP-CHMP4B(7-110)): -7380 kcal/mol
stoichiometry N (MBP-CHMP4B(7-110)): 0.84

B4: CC2D1A(346-494) (domain or fragment, human, UniProt Q6P1N0 346-494, looked up)
chain: RTLLEALEQRMERYQVAAAQAKSKGDQRKARMHERIVKQYQDAIRAHKAGRAVDVAELPVPPGFPPIQGLEATKPTQQSLVGVLETAMKLANQDEGPEDEEDEVPKKQNSPVAPTAQPKAPPSRTPQSGSAPTAKAPPKATSTRAQQQL
dH (MBP-CHMP4B(7-110)): -8160 kcal/mol
stoichiometry N (MBP-CHMP4B(7-110)): 1.03

Binder: B5
dH (MBP-CHMP4B(7-110)): -8190 kcal/mol
stoichiometry N (MBP-CHMP4B(7-110)): 0.9
dH (MBP-CHMP4B(23-97)): -14600 kcal/mol
stoichiometry N (MBP-CHMP4B(23-97)): 0.9
stoichiometry N [1]: 1

B6: CHMP4B(7-110), MBP removed (domain or fragment, UniProt Q9H444 7-110, looked up)
chain: LFGAGGGKAGKGGPTPQEAIQRLRDTEEMLSKKQEFLEKKIEQELTAAKKHGTKNKRAALQALKRKKRYEKQLAQIDGTLSTIEFQREALENANTNTEVLKNMG
stoichiometry N (CC2D1B(1-601) [2]): 1

Binder: B7
dH (CC2D1B(1-601) [3]): -13700 kcal/mol
stoichiometry N (CC2D1B(1-601) [3]): 1.02

Continued, values first:

koff (CC2D1A(346-455)): 0.0079 s⁻¹
kon (CC2D1A(346-455)): 25000 M⁻¹ s⁻¹
B1: MBP-CHMP4B(7-105) (domain or fragment, UniProt Q9H444 7-105, looked up)
chain: LFGAGGGKAGKGGPTPQEAIQRLRDTEEMLSKKQEFLEKKIEQELTAAKKHGTKNKRAALQALKRKKRYEKQLAQIDGTLSTIEFQREALENANTNTEV

koff (CC2D1A(346-455)): 0.0017 s⁻¹
kon (CC2D1A(346-455)): 1200 M⁻¹ s⁻¹
B2: MBP-CHMP4B(7-105)_(mut1) (domain or fragment, UniProt Q9H444 7-105, looked up)
chain: LFGAGGGKAGKGGPTPQEAIQALARTREMLSKKQEFLEKKIEQELTAAKKHGTKNKRAALQALKRKKRYEKQLAQIDGTLSTIEFQREALENANTNTEV
